From patent US8323941B2, “Histone demethylation mediated by the nuclear amine oxidase homolog LSD1” (President and Fellows of Harvard College, priority 2004, dated 2012)

What was measured:
GST-LSD1 = biological target: T1, GST-LSD1 (Homo sapiens, UniProt O60341); test: GST pulldown of HIS-tagged CoREST and mutants; type: binding; settings: Coomassie Blue staining
T1 construct: made in house; host or cells: bacteria (inferred from 'similar procedure' to the His-tagged proteins)
Method: To identify domains of CoREST that are involved in physical interactions with LSD1, GST-LSD1 or GST was incubated with bacterially purified, HIS-tagged CoREST and its mutant derivatives. […] This places the putative LSD1-binding domain within the C-terminal functional domain of CoREST, somewhere between aa 293-381 of CoREST. […] We therefore speculate that the SANT2 domain may be involved in mediate binding to the nucleosomal substrate. Taken together, these findings are consistent with the idea that CoREST functions as a bridging protein. The weak stimulatory activity of the N-terminal CoREST (del1, aa 1-293) remains unclear at the present time.
GST and GSTLSD1 plamsids were kind gifts from Dr. Tadashi Baba's Lab in Japan (Iwase et al., 2004). Expression and purification of GST and GSTLSD1 proteins were done using similar procedure as outlined for purification of his-tagged recombinant proteins. For GST-bead pulldown experiment, 2 μg of each purified his-tagged wt or del CoREST proteins were incubated with 5 μg of bound GST and GSTLSD1 proteins at 4° C. for 4 hrs in a binding buffer (50 mM Tris, pH 8.0, 300 mM NaCl, 1 mM DTT, 0.5 mM EDTA and 0.1% NP-40). The beads were washed 3 times in the binding buffer, resuspended in 2×SDS protein sample buffer, boiled for 5 mins and loaded onto 15% SDS PAGE gel. The gel was then stained with Coomassie Blue.

LSD1 = biological target: T2, LSD1 (Homo sapiens, UniProt O60341); test: LSD1 demethylation assay on nucleosomal substrates (mononucleosomes), Western blotting; type: biochemical; settings: CoREST deletion mutant
T2 construct: Full length (1-851aa) and C-terminal deleted (1-427 aa) human LSD1 cDNAs; 6xHis (N); made in house; host or cells: bacteria
Method: Preparation of mononucleosome. Mononucleosome was made according to a standard protocol (Tagami et al., 2004; Utley et al., 1996). Briefly, nuclear pellet from both TSA-treated or non-treated HeLa cells was homogenized for 60 times with type A pestle to obtain oligo-nucleosomes. The oligo-nucleosomes were then digested with micrococcal nuclease (40 units/mL) for 10 mins at 30° C. The nuclease is inactivated by 5 mM EDTA. Digested materials were spun at 14000 rpm for 3 mins. Resulting supernatant was spun again for additional 3 mins at the same speed. Supernatant from the second spin was subject to 10-25% glycerol gradient sedimentation. The monocleosome-containing fractions were identified by examining aliquots of fractions (treated with proteinase K) on DNA agarose gel. An aliquot of TSA-treated or non TSA-treated mononucleosome, a kind gift from Dr. Yoshihiro Nakatani's Lab in Dana Faber Cancer Institute, Harvard Medical School (Tagami et al., 2004), was used here as a control for the quality of mononucleosome made in our lab.
Demethylation assay. LSD1 demethylation activity on free histone or nucleosomal histone was carried out as previously reported (Shi et al., 2004). […] The demethylase activity of LSD1 under various conditions was evaluated by Western blotting using K4-H3 methylation-specific antibodies.

B1: del 4: CoREST deletion mutant aa 105-293 (protein)
chain: GPQYQAVVPDFDPAKLARRSQERDNLGMLVWSPNQNLSEAKLDEYIAIAKEKHGYNMEQALGMLFWHKHNIEKSLADLPNFTPFPDEWTVEDKVLFEQAFSFHGKTFHRIQQMLPDKSIASLVKFYYSWKKTRTKTSVMDRHARKQKREREESEDELEEANGNNPIDIEVDQNKESKKEVPPTETVPQV
modifications: left off: small tags and cut ends
binding to LSD1 (GST-LSD1): did not

B2: del 1: CoREST deletion mutant aa 1-293 (protein)
chain: MVEKGPEVSGKRRGRNNAAASASAAAASAAASAACASPAATAASGAAASSASAAAASAAAAPNNGQNKSLAAAAPNGNSSSNSWEEGSSGSSSDEEHGGGGMRVGPQYQAVVPDFDPAKLARRSQERDNLGMLVWSPNQNLSEAKLDEYIAIAKEKHGYNMEQALGMLFWHKHNIEKSLADLPNFTPFPDEWTVEDKVLFEQAFSFHGKTFHRIQQMLPDKSIASLVKFYYSWKKTRTKTSVMDRHARKQKREREESEDELEEANGNNPIDIEVDQNKESKKEVPPTETVPQV
modifications: left off: small tags and cut ends
stimulatory activity on LSD1 demethylation (LSD1): ~30 % of the wildtype CoREST activity | binding to LSD1 (GST-LSD1): did not
